B1: cTPI (Arabidopsis thaliana) (protein)
chain: MARKFFVGGNWKCNGTAEEVKKIVNTLNEAQVPSQDVVEVVVSPPYVFLPLVKSTLRSDFFVAAQNCWVKKGGAFTGEVSAEMLVNLDIPWVILGHSERRAILNESSEFVGDKVAYALAQGLKVIACVGETLEEREAGSTMDVVAAQTKAIADRVTNWSNVVIAYEPVWAIGTGKVASPAQAQEVHDELRKWLAKNVSADVAATTRIIYGGSVNGGNCKELGGQADVDGFLVGGASLKPEFIDIIKAAEVKKSA
notes: homodimer
B2: pdTPI (Arabidopsis thaliana) (protein)
chain: MAGSGKFFVGGNWKCNGTKDSIAKLISDLNSATLEADVDVVVSPPFVYIDQVKSSLTDRIDISGQNSWVGKGGAFTGEISVEQLKDLGCKWVILGHSERRHVIGEKDEFIGKKAAYALSEGLGVIACIGEKLEEREAGKTFDVCFAQLKAFADAVPSWDNIVVAYEPVWAIGTGKVASPQQAQEVHVAVRGWLKKNVSEEVASKTRIIYGGSVNGGNSAELAKEEDIDGFLVGGASLKGPEFATIVNSVTSKKVAA
notes: homodimer

Substrate: O=CC(O)COP(=O)(O)O
Assay: purified protein
Format: biochemical, Arabidopsis thaliana
Conditions: G3P to DHAP direction, 0-4.0 mM G3P (DL-G3P supplied), TEA pH 7.4, 10 mM EDTA, 0.01% BSA, 0.2 mM NADH, apparent constant

Protein	Km [µM]	kcat [s⁻¹]	kcat/Km [M⁻¹ s⁻¹]
B1	480 ± 50	2560 ± 43.9	5.34e+06
B2	400 ± 20	2340 ± 41.6	5.84e+06

— article PMC5138414, “Structural Basis for Redox Regulation of Cytoplasmic and Chloroplastic Triosephosphate Isomerases from Arabidopsis thaliana” (Frontiers in Plant Science, 2016)
